Consider one substance from PMC3547041.

The test addresses Type II Hsp40 Sis1 (S. cerevisiae (endogenous in yeast)) (UniProt P25294). In words: co-IP; yeast cell extracts in Buffer A (150 mM NaCl, 50 mM Hepes pH 7.4, 1 mM EDTA, 0.1% Triton X-100), indicated antisera 1 hour at 4°C, Protein G beads, immunoblotting; extracts with or without Apyrase (Ssa1); WT or Δhsp104 strain (Sis1). (In general: In western blotting, separated proteins are transferred to a membrane and probed.)
Sequence of UniProt P25294 (P25294 whole entry): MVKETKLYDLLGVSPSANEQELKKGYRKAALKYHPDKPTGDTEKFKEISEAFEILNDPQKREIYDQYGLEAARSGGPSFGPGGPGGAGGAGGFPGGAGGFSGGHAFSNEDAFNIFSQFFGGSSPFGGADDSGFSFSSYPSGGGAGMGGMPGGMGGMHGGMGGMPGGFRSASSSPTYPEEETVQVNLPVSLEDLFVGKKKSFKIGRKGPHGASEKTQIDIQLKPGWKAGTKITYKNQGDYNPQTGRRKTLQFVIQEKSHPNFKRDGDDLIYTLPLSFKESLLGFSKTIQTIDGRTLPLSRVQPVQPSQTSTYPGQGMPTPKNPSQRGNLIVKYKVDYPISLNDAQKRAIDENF

The substance short-lived GFP (slGFP) showed a fold change of immunoprecipitable Sis1:slGFP complexes in Δhsp104 against WT of 1.5 fold.
